From EP0699075B1 come the findings set out here.

The target of assay [1] is purified recombinant soluble tissue factor (UniProt P13726). Put plainly: cell-based or functional assay.
Assay [2] has as its target cell-surface tissue factor on rat vascular smooth muscle cells (rat) (UniProt P42533). Nature of the assay: cell-based or functional assay.
Chain of UniProt P42533 (P42533 29-295): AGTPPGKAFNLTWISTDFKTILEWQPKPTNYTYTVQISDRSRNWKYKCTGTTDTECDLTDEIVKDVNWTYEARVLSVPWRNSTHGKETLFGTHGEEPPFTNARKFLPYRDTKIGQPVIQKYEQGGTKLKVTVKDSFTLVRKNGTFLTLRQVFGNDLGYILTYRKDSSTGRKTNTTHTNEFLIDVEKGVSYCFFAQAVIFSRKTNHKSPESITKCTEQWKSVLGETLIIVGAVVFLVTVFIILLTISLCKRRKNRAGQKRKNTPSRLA

Chain of UniProt P13726 (P13726 33-251 limits assumed): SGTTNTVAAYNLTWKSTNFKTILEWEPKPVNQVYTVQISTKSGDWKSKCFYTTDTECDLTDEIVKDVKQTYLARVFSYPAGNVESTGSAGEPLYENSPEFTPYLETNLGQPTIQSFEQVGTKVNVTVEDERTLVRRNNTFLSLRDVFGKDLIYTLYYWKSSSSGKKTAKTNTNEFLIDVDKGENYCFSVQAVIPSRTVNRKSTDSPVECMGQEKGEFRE

As to DEGR-Factor VIIa (enzyme), in assay [1], the OD405, Factor Xa chromogenic activity (S-2222), DEGR-Factor VIIa 0 nM with 100 nM Factor VIIa and soluble tissue factor (cell read as 0 | 0.810) came to 0.81 OD405; the OD405, Factor Xa chromogenic activity (S-2222), DEGR-Factor VIIa 5 nM with 100 nM Factor VIIa and soluble tissue factor (cell read as 5 | 0.750) was 0.75 OD405; the OD405, Factor Xa chromogenic activity (S-2222), DEGR-Factor VIIa 10 nM with 100 nM Factor VIIa and soluble tissue factor (cell read as 10 | 0.609) came to 0.609 OD405; the OD405, Factor Xa chromogenic activity (S-2222), DEGR-Factor VIIa 20 nM with 100 nM Factor VIIa and soluble tissue factor (cell read as 20 | 0.296) came to 0.296 OD405. Further, in assay [1], the OD405, Factor Xa chromogenic activity (S-2222), DEGR-Factor VIIa 40 nM with 100 nM Factor VIIa and soluble tissue factor (cell read as 40 | 0.167) worked out at 0.167 OD405; the OD405, Factor Xa chromogenic activity (S-2222), DEGR-Factor VIIa 80 nM with 100 nM Factor VIIa and soluble tissue factor (cell read as 80 | 0.083) is 0.083 OD405; the OD405, Factor Xa chromogenic activity (S-2222), DEGR-Factor VIIa 160 nM with 100 nM Factor VIIa and soluble tissue factor (cell read as 160 | 0.055) was 0.055 OD405. In assay [2], the OD405, Factor Xa chromogenic activity (S-2222) on rat smooth muscle cells, DEGR-Factor VIIa 0.00 nM coincubated with 100 nM Factor VIIa turned out to be 0.208 OD405; the OD405, Factor Xa chromogenic activity (S-2222) on rat smooth muscle cells, DEGR-Factor VIIa 0.39 nM coincubated with 100 nM Factor VIIa was determined as 0.176 OD405; the OD405, Factor Xa chromogenic activity (S-2222) on rat smooth muscle cells, DEGR-Factor VIIa 1.56 nM coincubated with 100 nM Factor VIIa came to 0.116 OD405; the OD405, Factor Xa chromogenic activity (S-2222) on rat smooth muscle cells, DEGR-Factor VIIa 6.25 nM coincubated with 100 nM Factor VIIa was 0.073 OD405. Moreover, in assay [2], the OD405, Factor Xa chromogenic activity (S-2222) on rat smooth muscle cells, DEGR-Factor VIIa 25.00 nM coincubated with 100 nM Factor VIIa came to 0.026 OD405; the OD405, Factor Xa chromogenic activity (S-2222) on rat smooth muscle cells, DEGR-Factor VIIa 100.00 nM coincubated with 100 nM Factor VIIa amounted to 0.014 OD405; the OD405, Factor Xa chromogenic activity (S-2222) on serum-stimulated rat smooth muscle cells, 10 nM Factor VIIa + 100 nM DEGR-Factor VIIa came to 0.073 OD405; the inhibition of chromogenic activity at a 1:1 molar ratio of DEGR-Factor VIIa:Factor VIIa on rat smooth muscle cells was determined as 95%.

In assay [2], recombinant human Factor VIIa (enzyme) gave an OD405, Factor Xa chromogenic activity (S-2222) on PDGF-BB-stimulated rat smooth muscle cells, 10 nM Factor VIIa, cells washed before Factor X was added of 0.36 OD405; an OD405, Factor Xa chromogenic activity (S-2222) on rat smooth muscle cells stimulated with 10% FCS, 10 nM Factor VIIa, cells washed before Factor X was added of 0.342 OD405; an OD405, Factor Xa chromogenic activity (S-2222) on rat smooth muscle cells, Factor VIIa 0.10 nM of 0.005 OD405; an OD405, Factor Xa chromogenic activity (S-2222) on rat smooth muscle cells, Factor VIIa 0.39 nM of 0.025 OD405. Moreover, in assay [2], the OD405, Factor Xa chromogenic activity (S-2222) on rat smooth muscle cells, Factor VIIa 1.56 nM is 0.058 OD405; the OD405, Factor Xa chromogenic activity (S-2222) on rat smooth muscle cells, Factor VIIa 6.25 nM was determined as 0.111 OD405; the OD405, Factor Xa chromogenic activity (S-2222) on rat smooth muscle cells, Factor VIIa 25.00 nM came to 0.154 OD405; the OD405, Factor Xa chromogenic activity (S-2222) on rat smooth muscle cells, Factor VIIa 100.00 nM stood at 0.208 OD405. In assay [2], this substance gave an OD405, Factor Xa chromogenic activity (S-2222) on serum-stimulated rat smooth muscle cells, 10 nM Factor VIIa alone of 0.342 OD405 and an OD405, Factor Xa chromogenic activity (S-2222) on unstimulated rat smooth muscle cells (Intrinsic), 10 nM Factor VIIa, cells washed before Factor X was added of 0.247 OD405.
